Where a chain is given by its changes, count along the chain named.
B1: SNAP-mGlu5-Δ856 (FLAG-SNAP-tagged human mGlu5 receptor truncated after A856) (receptor, UniProt P41594-2 21-856, looked up)
chain: QSSERRVVAHMPGDIIIGALFSVHHQPTVDKVHERKCGAVREQYGIQRVEAMLHTLERINSDPTLLPNITLGCEIRDSCWHSAVALEQSIEFIRDSLISSEEEEGLVRCVDGSSSSFRSKKPIVGVIGPGSSSVAIQVQNLLQLFNIPQIAYSATSMDLSDKTLFKYFMRVVPSDAQQARAMVDIVKRYNWTYVSAVHTEGNYGESGMEAFKDMSAKEGICIAHSYKIYSNAGEQSFDKLLKKLTSHLPKARVVACFCEGMTVRGLLMAMRRLGLAGEFLLLGSDGWADRYDVTDGYQREAVGGITIKLQSPDVKWFDDYYLKLRPETNHRNPWFQEFWQHRFQCRLEGFPQENSKYNKTCNSSLTLKTHHVQDSKMGFVINAIYSMAYGLHNMQMSLCPGYAGLCDAMKPIDGRKLLESLMKTNFTGVSGDTILFDENGDSPGRYEIMNFKEMGKDYFDYINVGSWDNGELKMDDDEVWSKKSNIIRSVCSEPCEKGQIKVIRKGEVSCCWTCTPCKENEYVFDEYTCKACQLGSWPTDDLTGCDLIPVQYLRWGDPEPIAAVVFACLGLLATLFVTVVFIIYRDTPVVKSSSRELCYIILAGICLGYLCTFCLIAKPKQIYCYLQRIGIGLSPAMSYSALVTKTNRIARILAGSKKKICTKKPRFMSACAQLVIAFILICIQLGIIVALFIMEPPDIMHDYPSIREVYLICNTTNLGVVTPLGYNGLLILSCTFYAFKTRNVPANFNEAKYIAFTMYTTCIIWLAFVPIYFGSNYKIITMCFSVSLSATVALGCMFVPKVYIILAKPERNVRSAFTTSTVVRMHVGDGKSSSAA
modifications: SNAP tag labelled with a cell-impermeant red fluorophore (SNAP-Red)
notes: metabotropic glutamate receptor 5 (mGlu5), human, truncated after A856 by a stop codon; Construct from Cisbio Bioassays; the SNAP tag is extracellular; also called SNAP-Tag C-terminal mGlu5-Δ856 receptor; hmGlu5-ΔCter-A856; source: HEK293, transiently transfected; extracted with MNG3/CHS, not purified; on cells in the cAMP assay
B2: mGlu5-Δ856-eGFP (receptor, human, UniProt P41594-2 21-856, looked up)
chain: B1 chain with N425A
notes: metabotropic glutamate receptor 5 (mGlu5), human, truncated after A856; GP64 signal peptide (AcNPV) at the N-terminus; TEV protease site between receptor and eGFP, then 10x His; Theoretical MW printed: monomer 124,784 Da; also called mGlu5-eGFP; not shown: eGFP, C-terminal, kept

Columns and labels:
[1] = target: the molecule itself; assay: non-reducing SDS-PAGE; SNAP-Red-labelled receptor extracted from HEK293 cells with detergent, non-purified material; non-reducing conditions; fluorescence scan of the gel
[2] = target: the molecule itself; assay: non-reducing SDS-PAGE; purified receptor from Sf9 after SEC, Coomassie-blue stained gel; bands identified by mass spectrometry; reducing reagent raised the monomer band

Protein	stoichiometry N [1]	stoichiometry N [2]
B1	2	
B2		2

Reference: paper PMC5849714, “Direct coupling of detergent purified human mGlu5 receptor to the heterotrimeric G proteins Gq and Gs” (Scientific Reports, 2018)
